From PMC10574445, “Label-Free Homogeneous Electrochemical Aptasensor Based on Size Exclusion/Charge-Selective Permeability of Nanochannel Arrays and 2D Nanorecognitive Probe for Sensitive Detection of Alpha-Fetoprotein”

Key:
Details in all cases: protein: commercial
alpha-fetoprotein (AFP) = target: T1, alpha-fetoprotein (AFP) (UniProt P02771 19-609); test: electrochemical aptasensor (DPV), aptamer release from graphene oxide; Ru(bpy)3 2+/Apt@GO probe; linear 1 pg/mL-1000 ng/mL, LOD 0.8 pg/mL (not a Kd); AFP incubated with Ru(bpy)3 2+/Apt@GO at 37 °C for 1 h, DPV on VMSF/ITO; buffer, salt and pH not given in the material
T1 sequence: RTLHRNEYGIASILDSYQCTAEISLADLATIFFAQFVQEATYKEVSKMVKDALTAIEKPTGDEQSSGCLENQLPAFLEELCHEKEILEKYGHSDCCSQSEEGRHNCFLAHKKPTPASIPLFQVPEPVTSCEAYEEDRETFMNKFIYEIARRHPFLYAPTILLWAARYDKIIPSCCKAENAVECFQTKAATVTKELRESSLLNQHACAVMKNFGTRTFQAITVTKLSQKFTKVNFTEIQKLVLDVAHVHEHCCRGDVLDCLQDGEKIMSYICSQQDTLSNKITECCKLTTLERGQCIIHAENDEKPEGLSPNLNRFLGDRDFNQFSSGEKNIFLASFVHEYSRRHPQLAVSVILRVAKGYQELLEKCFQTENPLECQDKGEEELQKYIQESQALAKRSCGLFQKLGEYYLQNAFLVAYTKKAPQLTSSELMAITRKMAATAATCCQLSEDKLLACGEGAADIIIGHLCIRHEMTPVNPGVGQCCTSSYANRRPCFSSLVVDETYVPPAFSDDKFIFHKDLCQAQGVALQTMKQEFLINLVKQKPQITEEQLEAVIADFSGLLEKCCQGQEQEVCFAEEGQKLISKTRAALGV

[1] = target: PSA (printed as preprostate antigen) (UniProt P07288 25-261); test: electrochemical aptasensor (DPV), aptamer release from graphene oxide; Ru(bpy)3 2+/Apt@GO probe; no remarkable signal change; AFP incubated with Ru(bpy)3 2+/Apt@GO at 37 °C for 1 h, DPV on VMSF/ITO; buffer, salt and pH not given in the material
[2] = target: carcinoembryonic antigen (CEA) (UniProt P06731 35-685); test: as above
[3] = target: neutrophil gelatinase-associated lipocalin (NGAL) (UniProt P80188 21-198); test: as above
Chain of neutrophil gelatinase-associated lipocalin (NGAL) (P80188 21-198): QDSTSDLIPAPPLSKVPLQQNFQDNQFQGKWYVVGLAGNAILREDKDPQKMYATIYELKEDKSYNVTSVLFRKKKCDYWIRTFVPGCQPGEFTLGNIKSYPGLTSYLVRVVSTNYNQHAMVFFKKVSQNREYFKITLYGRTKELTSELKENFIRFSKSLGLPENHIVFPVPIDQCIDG

Chain of carcinoembryonic antigen (CEA) (P06731 35-685): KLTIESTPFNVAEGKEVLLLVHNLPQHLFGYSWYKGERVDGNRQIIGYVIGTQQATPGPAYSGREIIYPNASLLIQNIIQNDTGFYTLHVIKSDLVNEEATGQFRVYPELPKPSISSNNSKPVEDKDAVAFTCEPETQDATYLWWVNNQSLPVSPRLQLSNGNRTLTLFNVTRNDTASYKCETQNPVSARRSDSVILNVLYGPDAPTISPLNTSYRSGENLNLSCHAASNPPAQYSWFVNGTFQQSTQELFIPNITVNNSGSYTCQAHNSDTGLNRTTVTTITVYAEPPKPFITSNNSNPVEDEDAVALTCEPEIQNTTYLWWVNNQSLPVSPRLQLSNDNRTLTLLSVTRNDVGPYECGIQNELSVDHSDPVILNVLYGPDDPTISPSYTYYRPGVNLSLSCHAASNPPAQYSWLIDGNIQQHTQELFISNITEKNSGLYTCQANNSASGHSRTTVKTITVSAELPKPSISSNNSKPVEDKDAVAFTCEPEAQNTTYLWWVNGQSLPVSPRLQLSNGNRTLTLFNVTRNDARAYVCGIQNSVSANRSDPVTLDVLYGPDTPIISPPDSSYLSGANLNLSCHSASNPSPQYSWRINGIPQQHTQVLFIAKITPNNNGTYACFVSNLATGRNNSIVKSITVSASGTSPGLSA
Chain of PSA (printed as preprostate antigen) (P07288 25-261): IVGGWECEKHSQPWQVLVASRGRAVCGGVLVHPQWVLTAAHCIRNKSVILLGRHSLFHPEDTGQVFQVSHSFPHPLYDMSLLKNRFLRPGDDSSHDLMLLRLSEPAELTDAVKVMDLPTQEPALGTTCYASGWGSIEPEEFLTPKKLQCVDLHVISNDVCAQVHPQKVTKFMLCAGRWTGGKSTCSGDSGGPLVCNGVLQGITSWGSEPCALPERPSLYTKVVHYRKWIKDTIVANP

Binder: ATCAGGTGCAGTTCTCGACTCGGTCTTGATGTGGG (ssDNA) [AFP aptamer (Apt)]
- binding result (alpha-fetoprotein (AFP)): binds
- binding result [1]: no binding
- binding result [2]: no binding
- binding result [3]: no binding
